The values that follow come from patent US20240199755A1 (KYMAB, published 2024).

The target of test [1] is T1, BMP-2.
T1 construct: The BMP-2 used in the heterotopic ossification model was from Thermo Fisher, and in the co-IP from Peprotech; Species is never stated, so all are treated as one molecule; also called bone morphogenetic protein 2
T1 sequence (P12643 283-396, species assumed, looked up): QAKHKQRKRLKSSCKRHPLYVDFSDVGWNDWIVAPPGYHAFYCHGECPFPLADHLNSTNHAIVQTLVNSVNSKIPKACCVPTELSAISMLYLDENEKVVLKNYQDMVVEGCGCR
Description: SPR binding level normalised to molecular weight, Tfr2-ECD immobilised; reference holo-Tf.
Description: All experiments were performed three independent times. FIG. 15a: Quantification of the binding level normalized to the molecular weight. […] FIG. 15b: Binding response of different concentrations of holo-Tf and/or BMP-2. […] (n=4). FIG. 15d: SPR analyses. […] Binding response is relative to BMP-2 alone. […] FIGS. 15b and 15d: One-way ANOVA was used for statistical analysis. […] Two-way ANOVA with Bonferroni post-hoc test was used for statistical analysis. […] All data are presented as mean±SD.

For test [2], the target named is T1, BMP-2. As to the kind of experiment: SPR steady state analysis, BMP-2 immobilised, Tfr2-ECD 10-5000 nM as analyte, 1:1 interaction assumed. The protocol:
(§1) The binding analysis was performed at 37° C. at a flow rate of 30 μl/min. Each analyte was diluted in running buffer (HBS-P (pH 7.4), 150 mM NaCl, supplemented with 50 nM FeCl₃). In some experiments, 500 mM NaCl were used to reduce potential non-specific binding. […] Concentration-dependent binding of holo-Tf was performed without intermediate regeneration.
(§2) The kinetic fitting was performed by global fitting using the 1:1 Langmuir binding model (A+B=AB). Steady state analyses were conducted to determine the affinities (Kd). […] Binding and kinetic parameters were evaluated with Biacore™ T200 evaluation software 3.1.

The next test concerns the target BMP-4. Description: SPR steady state analysis, BMP-4 immobilised, Tfr2-ECD 10-5000 nM as analyte, 1:1 interaction assumed. The protocol:
as §1, §2

Sequence of BMP-4 (P12644 293-408): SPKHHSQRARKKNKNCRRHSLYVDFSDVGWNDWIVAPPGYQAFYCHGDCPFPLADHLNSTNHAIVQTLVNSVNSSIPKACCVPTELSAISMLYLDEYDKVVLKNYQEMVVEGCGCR

B1: Tfr2 extracellular domain (Tfr2-ECD), murine, aa 103-798, recombinant His-tagged (receptor, not shown: large carriers)
chain: RGSCQACGDSVLVVDEDVNPEDSGRTTLYWSDLQAMFLRFLGEGRMEDTIRLTSLRERVAGSARMATLVQDILDKLSRQKLDHVWTDTHYVGLQFPDPAHANTLHWVDADGSVQEQLPLEDPEVYCPYSATGNATGKLVYAHYGRSEDLQDLKAKGVELAGSLLLVRVGITSFAQKVAVAQDFGAQGVLIYPDPSDFSQDPHKPGLSSHQAVYGHVHLGTGDPYTPGFPSFNQTQFPPVESSGLPSIPAQPISADIADQLLRKLTGPVAPQEWKGHLSGSPYRLGPGPDLRLVVNNHRVSTPISNIFACIEGFAEPDHYVVIGAQRDAWGPGAAKSAVGTAILLELVRTFSSMVSNGFRPRRSLLFISWDGGDFGSVGATEWLEGYLSVLHLKAVVYVSLDNSVLGDGKFHAKTSPLLVSLIENILKQVDSPNHSGQTLYEQVALTHPSWDAEVIQPLPMDSSAYSFTAFAGVPAVEFSFMEDDRVYPFLHTKEDTYENLHKMLRGRLPAVVQAVAQLAGQLLIRLSHDHLLPLDFGRYGDVVLRHIGNLNEFSGDLKERGLTLQWVYSARGDYIRAAEKLRKEIYSSERNDERLMRMYNVRIMRVEFYFLSQYVSPADSPFRHIFLGQGDHTLGALVDHLRMLRADGSGAASSRLTAGLGFQESRFRRQLALLTWTLQGAANALSGDVWNIDNNF
notes: Expressed in Sf9 insect cells (pOCC211-Tfr2-ECD) and purified on HisTrap; Experiments were repeated with a commercial Tfr2-ECD from Cusabio (aa 103-798); also called His-Tfr2-ECD; His-MBP-c3-Tfr2-ECD
The term Kd denotes a measure of binding affinity in units of concentration. Lower therefore signals tighter binding. Regarding B1, in the test with BMP-2 [1], the “fold binding relative to holo-Tf” value stood at 10 fold. In addition, the Kd in the test with BMP-2 [2] amounted to 488 nM; with BMP-4, 409 nM.
